{"source": "patent US6569419B2", "about": "“Methods for promoting production of myelin by Schwann cells” (ZymoGenetics, Inc., priority 2000, dated 2003)", "molecules": {"B1": {"name": "A258 F: Solution of human Zcyto7 expressed in BHK cells, 0.603 mg/ml of PBS at pH 6.0 (protein, UniProt Q9UHF5 21-180, looked up)", "Interleukin-17B": "QPRSPKSKRKGQGRPGPLAPGPHQVPLDLVSRMKPYARMEEYERNIEEMVAQLRNSSELAQRKCEVNLQLWMSNKRSLSPWGYSINHDPSRIPVDLPEARCLCLGCVNPFTMQEDRSMVSVPVFSQVPVRRRLCPPPPRTGPCRQRAVMETIAVGCTCIF"}, "B2": {"name": "human Zcyto7: Human Zcyto7 polypeptide (SEQ ID NO: 2), identified by its homology to Interleukin-17; used at 100 ng/ml (protein)", "chain": "MDWPHNLLFLLTISIFLGLGQPRSPKSKRKGQGRPGPLAPGPHQVPLDLVSRMKPYARMEEYERNIEEMVAQLRNSSELAQRKCEVNLQLWMSNKRSLSPWGYSINHDPSRIPVDLPEARCLCLGCVNPFTMQEDRSMVSVPVFSQVPVRRRLCPPPPRTGPCRQRAVMETIAVGCTCIF"}, "B3": {"name": "Zcyto7: Zcyto7 polypeptide; species and solution not stated in Example 6 (protein)", "chain": "B2 chain"}}, "key": {"[1]": {"system": "primary rat Schwann cells", "assay": "Induction of protein zero expression in Schwann cells (Western blot)", "type": "cell-based", "settings": "N2 medium + 1 μM progesterone", "description": "Primary Schwann cells were prepared as described above using 1-day old CD rat neonates. Schwann cells were grown in DMEM, 10% fetal bovine serum (FBS), plus bovine pituitary extract (PEX) at 20 μg/ml and Forskolin at 2μM. The cells were weaned down to a low serum medium (“Li” medium with 1% FBS added to it). Li medium was comprised of DMEM/F12, 10 μg/ml tranferrin, 5 μg/ml insulin, 2 nM progesterone, 2 μM Forskolin, 20 μg/ml PEX, and 20 ng/ml Heregulin-beta-1 (R & D Systems).\nThe Schwann cells were grown to confluency in the low serum growth medium on poly-L-lysine-coated 10 cm tissue culture dishes. The cell medium was changed to N2 medium+1 μM progesterone with either Forskolin (Calbiochem) (10 μM and 25 μM) or 100 ng/ml of human Zcyto7. Control medium was Schwann cells in N2+1 μM progesterone for the whole time. Cells were harvested and placed in lysis buffer (125 mM Tris HCl, pH 7.0, 15% sucrose, 4% SDS, 10 mM EDTA, plus added Roche Complete-EDTA-free, protease inhibitor cocktail).\nProtein concentrations of cell lysates were determined by Pierce BCA protein assay (Pierce Chemical Co., Rockford, Ill.). Forty micrograms of each cell lysate sample was run on a 4-12% Tris-Glycine gel (Novex) at 125 V for 1 hour 30 minutes, and transferred onto a PVDF membrane in a Hoeffer unit a 550 mAmps for 1 hour. Mouse monoclonal antibody to protein zero was used at 1:1000 dilution (1 μg/am final concentration) to probe the blot. A Vectastain biotin/streptavidin-HRP 2nd antibody system was used for amplication. The blot was developed with Pierce SuperSignal West Pico chemiluminescent substrate and scanned on a Boehringer-Mannheim Lumi-Imager."}, "primary Schwann cells": {"system": "primary Schwann cells", "assay": "MBP induction in pure Schwann cell cultures (Western blot, densitometry)", "type": "cell-based, rat", "settings": "for Mean MBP induction (as percent of progesterone induction): mean ± SD", "description": "Primary Schwann cell cultures and dorsal root ganglia (DRG)-Schwann cell co-cultures were established. Rat primary Schwann cells were isolated as described by Einheber et al., J. Cell Biol. 123:1223-1236 (1994). Schwann cells were grown in 100 mm poly-L-lysine coated plates in Dulbecco's modified Eagles medium (DMEM) supplemented with 10% fetal bovine serum (FBS), pituitary extract (1 mg/ml) and 10 μM forskolin; up to 80-90% confluency.\nThe effect of Zcyto7 was tested in pure Schwann cell culture and in a co-culture of DRG and Schwann cells. Primary Schwann cells were grown to 80-90% confluency in 100 mm plates as described above. 12 h before treatment media was changed to 10 ml of N2 (defined medium) with or without 1 μM progesterone. The Zcyto7 solutions were added as 1.1 ml of 10×solution in N2 media, and cells were incubated for 48 hours (h). Cells were washed once with Hanks balanced salt solution (HBSS). The cell suspension was frozen on dry ice, thawed, pelleted and resuspended in 100 μl of lysis buffer, 125 mM tris (hydroxymethyl) aminomethane HCl (Tris HCl) pH7.0, 15% sucrose, 4% sodium dodecyl sulfate (SDS), 10 mM ethylenediaminetetraacetic acid (EDTA). Lysates were boiled for 5 minutes (min) on a water bath and cooled on ice. The protein concentration was determined using 4 μl in a BioRad BCA assay. Each sample was then supplemented with dithiothreitol (DTT) to a final concentration of 10 mM phenylmethylsulfonyl fluoride (PMSF)—to 2 mM, pepstatin and leupeptin—to 10 μg/ml.\n60 μg of protein from each sample were separated on 4-12% Tris-Glycin NOVEX gels at 125 V constant for 1.5 h. Each gel contained vehicle control, vehicle supplemented with progesterone control, and randomly chosen samples from treatment groups. Transfer to poly (vinylidine difluoride) (PVFD) membrane was carried out according to the NOVEX electrotransfer protocol, at 25 V, for 40 min. Membranes were rinsed with tris buffered saline (TBS) for 3 min, and blocked with TBS/0.1% TWEEN-20/2% BSA for 1 h. Membranes were then incubated with 1:1000 dilution of anti-MBP mouse monoclonal IgG (Boehringer, Mannheim) in TBS/0.1% TWEEN-20, 0.5% BSA overnight, at 4° C. After washing 4 times for 30 min with TBS/0.1% TWEEN-20, membranes were incubated with anti-mouse horseradish peroxidase conjugate (1:20,000 dilution in TBS/0.1% TWEEN-20, incubated with SUPERSIGNAL chemiluminescent HRP substrate (Pierce Chemical Co., Rockford, Ill.) and exposed to Kodak X-Ray film for 15-20 min.\nDensity of myelin basic protein (MBP) bands was measured on LYNX Densitometer (Applied imaging) with ILLUMA System and expressed as percent progesterone-induced control MBP.\nIn experiment 1, the effect of the 4 different solutions of Zcyto7 on MBP accumulation was evaluated in pure Schwann cell cultures, with and without progesterone pretreatment. Solution A275F was evaluated in experiment 1 at 1 ng/ml, 10 ng/ml, 100 ng/ml and 1 μg/ml.\nFour controls were included in each experiment: test vehicle alone, vehicle supplemented with progesterone, vehicle supplemented with IL-17, and vehicle supplemented with progesterone and IL-17 [See J. Immunol, 150:5445-5456 (1993)]. Three replicates were set up per each condition."}, "[2]": {"system": "DRG-Schwann cell co-cultures", "assay": "Production of myelin (MBP immunofluorescence signal density) in DRG-Schwann cell co-cultures", "type": "cell-based, rat", "settings": "DRG-Schwann cell co-culture, 3.5 weeks", "description": "Dissociated neuronal cultures from normal rats were established as described by Kleitman et al., Tissue culture methods for the study of myelination, in Culturing Nerve Cells, Banker and Goslin, Eds, pp. 338-378(MIT Press, Cambridge, Mass., 1992). Briefly, DRG were dissected out from the rats, treated with 0.25% trypsin, mechanically dissociated, washed, and resuspended in L15 medium with 10% fetal calf serum. The neurons were plated onto 12-mm glass coverslips coated with ammoniated rat tail collagen (Biomedical Technologies, Inc.) for microscopic evaluation. Starting one day following the dissection, cultures were treated over a 2-week period with three cycles of 5-fluorodeoxyuridine and uridine (both at 10 μM) in standard medium to assure a pure neuronal population. Standard medium consisted of minimum essential medium (MEM) supplemented with 10% FBS, 2 mM glutamine, 0.4% glucose, and 50 ng/m β-nerve growth factor (β-NGB).\nMyelinating co-cultures were established by seeding the purified neurons with rat primary Schwann cells as described Einheber, et al., id.\nAfter establishing the myelinating co-cultures, Schwann cells were allowed to proliferate for one week attached to the neurons. The medium was then changed to 15% and 50 μg/ml ascorbate was added to promote basal lamina formation and to initiate myelination. The effect of the Zcyto7 was evaluated for 3.5 weeks in the presence of ascorbate, with the medium changed every two days. Cultures were then fixed in 3.7% formaldehyde for 10 minutes and made permeable in 100% methanol for 15 minutes at −20° C. Following with PBS having 3% BSA, the samples were incubated with mouse anti-MBP antibody (Boehringer-Mannheim) overnight, washed and incubated with Cy3-labeled anti-mouse IgG. Samples were washed, mounted in VECTASHIELD and examined by epifluorescence with a Zeiss AXIOSKOP microscope.\nMyelin production was quantitatively and qualitatively evaluated, and myelin density was determined for each of the five replicates per condition. Six representative regions in each sample were captured using a low-level light COHUE digital camera, and the density of fluorescent signal determined using the National Institutes of Health (NIH) Scion Image. The mean and standard deviation of myelin density was calculated for each group and converted to a percentage by dividing by the density seen in the appropriate control culture. Morphometric measurements were carried out using double blind analysis.\nSolution A258F was chosen on the basis of the results of experiment 1 was evaluated in experiment 2 for myelin formation in DRG-Schwann co-cultures. […]"}, "[3]": {"system": "mRNA that encodes myelin basic protein and protein zero", "assay": "Hybridization studies: mRNA levels that encode myelin basic protein and protein zero", "type": "cell-based", "description": "The expression of myelin basic protein and protein zero was also determined by measuring the mRNA levels that encode myelin basic protein and protein zero."}}}
{"molecule": "C=C[C@@]1(C)CC(=O)[C@]2(O)[C@@]3(C)[C@@H](O)CCC(C)(C)[C@@H]3[C@H](O)[C@H](OC(C)=O)[C@@]2(C)O1", "note": "[Forskolin]", "values": [{"measurement": "Relative percentage of P zero protein (media control = 100%)", "setting": "[1]; 10 μM", "result": 199, "unit": "%"}, {"measurement": "Relative percentage of P zero protein (media control = 100%)", "setting": "[1]; 25 μM", "result": 30, "unit": "%"}]}
{"molecule": "IL-17: Interleukin-17; solution at 50 μg/ml of PBS, pH 7.0; control in the experiments", "values": [{"measurement": "Mean MBP induction (as percent of progesterone induction)", "setting": "primary Schwann cells; Prog + IL-17 control, in column A258 F", "result": "199.30 ± 23.21% of progesterone induction"}, {"measurement": "Mean MBP induction (as percent of progesterone induction)", "setting": "primary Schwann cells; Prog + IL-17 control, in column A275 F", "result": "214.50 ± 103.80% of progesterone induction"}, {"measurement": "Mean MBP induction (as percent of progesterone induction)", "setting": "primary Schwann cells; Prog + IL-17 control, in column A311 F", "result": "180.60 ± 123.80% of progesterone induction"}, {"measurement": "MBP Signal Density (mean ± SD)", "setting": "[2]; Ascorbic acid (AA) + 10 ng/ml", "result": "11.65 ± 0.78"}]}
{"molecule": "B1", "values": [{"measurement": "Mean MBP induction (as percent of progesterone induction)", "setting": "primary Schwann cells; 1 ng/ml, without progesterone, pure Schwann cells, 48 h", "result": "81.47 ± 7.75% of progesterone induction"}, {"measurement": "Mean MBP induction (as percent of progesterone induction)", "setting": "primary Schwann cells; 10 ng/ml, without progesterone, pure Schwann cells, 48 h", "result": "41.59 ± 32.29% of progesterone induction"}, {"measurement": "MBP accumulation (in words)", "setting": "primary Schwann cells; 100 ng/ml, in the absence of progesterone pretreatment", "result": "significantly induced MBP accumulation"}, {"measurement": "Mean MBP induction (as percent of progesterone induction)", "setting": "primary Schwann cells; 100 ng/ml, without progesterone, pure Schwann cells, 48 h", "result": "117.00 ± 42.89% of progesterone induction"}, {"measurement": "Mean MBP induction (as percent of progesterone induction)", "setting": "primary Schwann cells; 1 μg/ml, without progesterone, pure Schwann cells, 48 h", "result": "152.80 ± 27.95% of progesterone induction"}, {"measurement": "Mean MBP induction (as percent of progesterone induction)", "setting": "primary Schwann cells; Prog + 1 ng/ml, pure Schwann cells, 48 h", "result": "117.00 ± 15.83% of progesterone induction"}, {"measurement": "Mean MBP induction (as percent of progesterone induction)", "setting": "primary Schwann cells; Prog + 10 ng/ml, pure Schwann cells, 48 h", "result": "187.20 ± 18.43% of progesterone induction"}, {"measurement": "Mean MBP induction (as percent of progesterone induction)", "setting": "primary Schwann cells; Prog + 100 ng/ml, pure Schwann cells, 48 h", "result": "265.90 ± 32.09% of progesterone induction"}, {"measurement": "Mean MBP induction (as percent of progesterone induction)", "setting": "primary Schwann cells; Prog + 1 μg/ml, pure Schwann cells, 48 h", "result": "174.30 ± 25.59% of progesterone induction"}, {"measurement": "Concentration of maximal effect on MBP accumulation", "setting": "primary Schwann cells; pure Schwann cell cultures", "result": 100, "unit": "ng/mL"}, {"measurement": "MBP induction (in words)", "setting": "primary Schwann cells; pure Schwann cell cultures", "result": "induced MBP accumulation in dose-dependent manner"}, {"measurement": "MBP Signal Density (mean ± SD)", "setting": "[2]; Ascorbic acid (AA) + 1 ng/ml", "result": "20.04 ± 8.55"}, {"measurement": "MBP Signal Density (mean ± SD)", "setting": "[2]; Ascorbic acid (AA) + 10 ng/ml", "result": "47.74 ± 23.60"}, {"measurement": "MBP Signal Density (mean ± SD)", "setting": "[2]; Ascorbic acid (AA) + 100 ng/ml", "result": "74.74 ± 19.22"}]}
{"molecule": "B2", "values": [{"measurement": "Relative percentage of P zero protein (media control = 100%)", "setting": "[1]; 100 ng/ml", "result": 173, "unit": "%"}]}
{"molecule": "B3", "values": [{"measurement": "mRNA that encodes for myelin basic protein", "setting": "[3]", "result": "upregulated"}, {"measurement": "mRNA that encodes for protein zero", "setting": "[3]", "result": "upregulated"}]}
